Literature values as cited in US20230090114A1, “METHODS FOR PROMOTING WEIGHT LOSS” (89BIO LTD., priority 2020, published 2023).

Conditions: in vivo; cited from earlier work

B1: recombinant human FGF-21: recombinant human FGF-21 (SEQ ID NO: 1 is native human FGF-21) (protein, listed as Homo sapiens)
chain: MHPIPDSSPLLQFGGQVRQRYLYTDDAQQTEAHLEIREDGTVGGAADQSPESLLQLKALKPGVIQILGVKTSRFLCQRPDGALYGSLHFDPEACSFRELLLEDGYNVYQSEAHGLPLHLPGNKSPHRDPAPRGPARFLPLPGLPPALPEPPGILAPQPPDVGSSDPLSMVGPSQGRSPSYAS
- half-life: 1 to 2 h
